The supplement of paper PMC10567573

B1: ATL3 (parent)
chain: YGLQGGMAFLDKRLQVKEHQHEEI

Variants of: B1
Assay: protein stability index of a GFP-peptide fusion (GPS, HEK-293T) (PSI 1-6); higher = more stable
Conditions: c terminus: a fixed tail appended
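Also: lentivirally expressed fusions sorted by FACS into six bins by GFP to DsRed ratio, PSI derived from sequencing read proportions per bin multiplied by bin number.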

Protein stability index, by site and new letter:
A8: Y 2.68, P 2.93, T 3.38, Q 2.02, C 2, E 2.91
E18: Y 2.61, A 3.26, F 3.53, M 3.04, Q 1.99, C 2.58, G 3.65, K 3.37, L 1.74, H 2.48, N 2.32
Q20: K 1.85, G 3.57, I 2.56, P 2, M 2.35
Y1: G 4.73, Q 4.79, P 4.22, W 2.45, M 4.29
G2: S 2.96, Q 2.11, P 2.63, Y 2.71, I 1.66, N 2.26, K 3.22
E23: S 2.41, Y 2.76, A 1.94, G 3.58, V 2.17, N 2.85, I 2.66, R 2.99
M7: C 2.48, H 1.75, S 2.05, F 3.3, N 2.23, R 2.24, E 3.23, P 2.18, T 1.7, A 1.38
R13: G 1.28, P 1.93, H 2.26, F 2.73, I 1.66, S 1.98
F9: W 2.26, S 4.49, C 4.13, L 3.84, G 4.45, Y 1.91, E 5
K17: P 2.82, M 2.55, Q 1.55, F 2.52, H 2.63, T 2.7, E 2.56, R 2.99, D 1.54, A 1.42
G6: W 1.97, D 2.31, Q 2.95, K 2.46, I 2.54, P 2.65, C 2.21, Y 2.34
L14: W 2.82, F 2.82, T 3.17, A 3.51, I 2.63, H 2.04, S 2.57, K 2.1
Q15: C 3.47, D 2.4, G 2.69, H 2.75, P 2.47, N 1.79
H21: L 2.8, F 1.6
I24: K 2.35, S 2.56, A 2.58, P 2.81, R 2.26, V 2.5, L 2.51, F 4.03, H 3.42
L3: P 2.55, D 2.96, R 3.69, T 2.86, Q 2.73, C 2.03, E 2.37
H19: C 2.31, L 2.36, E 2.81, I 2.95, T 2.54, Y 2.76
L10: H 1.98, M 1.54, V 2.57, W 1.96, Y 1.68
D11: L 2.37, G 2.76, I 1.85, K 2.27, C 2.94, E 2.9
K12: P 1.88, A 1.93, Q 1.81, C 1.49, G 2.22, E 1.99, D 1.75
V16: S 1.46, Q 3.13, E 2.79, N 1.6, K 2.84, P 1.22, C 2.78
E22: L 2.68, C 2.48, H 2.91, A 2.54, Y 2.6, V 1.45, N 3.19, M 2.24
Q4: W 2.66, K 3.89, G 1.98, L 1.75, V 2.25, H 3.46
G5: V 2.28, L 2.39, F 1.82, A 1.74, P 2.65, Q 2.73, I 2.04
